Laboratory results reported in paper PMC9972587, “SIRT2-PFKP interaction dysregulates phagocytosis in macrophages with acute ethanol-exposure” (Frontiers in Immunology, 2022).

Biological target: T1, Human recombinant PFKP protein (His and GST tag) (human, UniProt Q01813 1-784)
T1 construct: Phosphofructokinase, platelet isoform (PFKP), human, recombinant; also called human PFKP protein; source: bought: Sino Biological (CAT# 15003-H20B)
T1 sequence (looked up): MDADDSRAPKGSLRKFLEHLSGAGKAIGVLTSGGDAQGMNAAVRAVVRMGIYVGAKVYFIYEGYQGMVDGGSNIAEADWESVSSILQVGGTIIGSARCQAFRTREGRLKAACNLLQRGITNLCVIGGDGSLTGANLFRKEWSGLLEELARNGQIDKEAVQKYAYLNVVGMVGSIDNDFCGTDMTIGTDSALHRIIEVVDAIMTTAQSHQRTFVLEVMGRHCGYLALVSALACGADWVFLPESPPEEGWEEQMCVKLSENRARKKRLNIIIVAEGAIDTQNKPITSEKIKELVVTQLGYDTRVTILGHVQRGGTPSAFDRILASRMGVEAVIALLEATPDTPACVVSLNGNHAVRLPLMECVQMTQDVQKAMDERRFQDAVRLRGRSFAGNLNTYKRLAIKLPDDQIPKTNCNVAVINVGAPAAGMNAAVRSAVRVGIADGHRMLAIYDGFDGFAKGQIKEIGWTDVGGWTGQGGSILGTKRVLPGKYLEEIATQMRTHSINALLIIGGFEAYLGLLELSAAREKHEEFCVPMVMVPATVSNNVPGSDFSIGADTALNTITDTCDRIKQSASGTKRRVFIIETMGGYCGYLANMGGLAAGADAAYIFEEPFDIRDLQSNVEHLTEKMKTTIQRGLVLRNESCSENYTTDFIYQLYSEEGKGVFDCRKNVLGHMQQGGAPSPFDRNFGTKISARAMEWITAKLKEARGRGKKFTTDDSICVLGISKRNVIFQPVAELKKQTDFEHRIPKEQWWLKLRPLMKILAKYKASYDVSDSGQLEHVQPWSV
Test: SPR; Biacore S200; human SIRT2 immobilised on CM5 chip by amine coupling (10 mM sodium acetate pH 4.0 with 20 uM NAD+); PFKP injected at 15.62-1000 nM, contact time 120 s, 15 uL/minute; running buffer HBS-P+ pH 7.4; steady state equilibrium binding model
Details: both partners purified

Kd: 100 nM
B1: Recombinant human SIRT2 protein (enzyme, UniProt Q8IXJ6 1-389, looked up)
chain: MAEPDPSHPLETQAGKVQEAQDSDSDSEGGAAGGEADMDFLRNLFSQTLSLGSQKERLLDELTLEGVARYMQSERCRRVICLVGAGISTSAGIPDFRSPSTGLYDNLEKYHLPYPEAIFEISYFKKHPEPFFALAKELYPGQFKPTICHYFMRLLKDKGLLLRCYTQNIDTLERIAGLEQEDLVEAHGTFYTSHCVSASCRHEYPLSWMKEKIFSEVTPKCEDCQSLVKPDIVFFGESLPARFFSCMQSDFLKVDLLLVMGTSLQVQPFASLISKAPLSTPRLLINKEKAGQSDPFLGMIMGLGGGMDFDSKKAYRDVAWLGECDQGCLALAELLGWKKELEDLVRREHASIDAQSGAGVPNPSTSASPKKSPPPAKDEARTTEREKPQ
notes: Sirtuin 2 (SIRT2), human, recombinant; also called human SIRT2 ligand; source: bought: Sigma-Aldrich (CAT# SRP0116)
